Assay results as given in publication PMC2950906 (Nature structural & molecular biology, 2010).

Tests used:
[1] = molecular target: EcGspD fragment 1-237 (peri-GspD), N0-N1-N2 subdomains of the secretin from enterotoxigenic E. coli (enterotoxigenic E. coli); assay: SPR
cryo-EM structure = molecular target: the molecule itself; assay: cryo-EM structure

B-pentamer of heat-labile enterotoxin (LTB5) (from UniProt P32890 22-124) (complex)
Kd [1]: 15.5 µM

B1: V. cholerae GspD secretin (VcGspD), full-length recombinant channel (natural protein)
chain: NEFSASFKGTDIQEFINIVGRNLEKTIIVDPSVRGKVDVRSFDTLNEEQYYSFFLSVLEVYGFAVVEMDNGVLKVIKSKDAKTSAIPVLSGEERANGDEVITQVVAVKNVSVRELSPLLRQLIDNAGAGNVVHYDPANIILITGRAAVVNRLAEIIRRVDQAGDKEIEVVELNNASAAEMVRIVEALNKTTDAQNTPEFLKPKFVADERTNSILISGDPKVRERLKRLIKQLDVEMAAKGNNRVVYLKYAKAEDLVEVLKGVSENLQAEKGTGQPTTSKRNEVMIAAHADTNSLVLTAPQDIMNAMLEVIGQLDIRRAQVLIEALIVEMAEGDGINLGVQWGSLESGSVIQYGNTGASIGNVMIGLEEAKDTTQTKAVYDTNNNFLRNETTTTKGDYTKLASALSSIQGAAVSIAMGDWTALINAVSNDSSSNILSSPSITVMDNGEASFIVGEEVPVITGSTAGSNNDNPFQTVDRKEVGIKLKVVPQINEGNSVQLNIEQEVSNVLGANGAVDVRFAKRQLNTSVMVQDGQMLVLGGLIDERALESESKVPLLGDIPLLGQLFRSTSSQVEKKNLMVFIKPTIIRDGVTADGITQRKYNYIRAEQLFRAEKGLRLLDDASVPVLPKFGDDRRHSPEIQAFIEQMEAKQ
stoichiometry N (cryo-EM structure): 12
